T1: Recombinant Human IL-17 (human, UniProt Q16552 20-155, limits assumed)
T1 construct: bought reagent
T1 sequence (looked up): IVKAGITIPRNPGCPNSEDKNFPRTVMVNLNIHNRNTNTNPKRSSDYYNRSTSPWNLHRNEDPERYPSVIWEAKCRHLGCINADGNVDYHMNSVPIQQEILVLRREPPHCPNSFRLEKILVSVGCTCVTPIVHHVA


Tests used:
Recombinant Human IL-17 = biological target: T1, Recombinant Human IL-17; assay: Biacore SPR; N-terminal VD
Experimental: (§1) The BIACORE assay (Biacore, Inc, Piscataway, N.J.) determines the affinity of antibodies or DVD-Ig with kinetic measurements of on-rate and off-rate constants. Binding of antibodies or DVD-Ig to a target antigen (for example, a purified recombinant target antigen) was determined by surface plasmon resonance-based measurements with a Biacore® 1000 or 3000 instrument (Biacore® AB, Uppsala, Sweden) using running HBS-EP (10 mM HEPES [pH 7.4], 150 mM NaCl, 3 mM EDTA, and 0.005% surfactant P20) at 25° C. All chemicals were obtained from Biacore® AB (Uppsala, Sweden) or otherwise from a different source as described in the text. For example, approximately 5000 RU of goat anti-mouse IgG, (Fcγ), fragment specific polyclonal antibody (Pierce Biotechnology Inc, Rockford, Ill.) diluted in 10 mM sodium acetate (pH 4.5) was directly immobilized across a CM5 research grade biosensor chip using a standard amine coupling kit according to manufacturer's instructions and procedures at 25 μg/ml. Unreacted moieties on the biosensor surface were blocked with ethanolamine. Modified carboxymethyl dextran surface in flowcell 2 and 4 was used as a reaction surface. Unmodified carboxymethyl dextran without goat anti-mouse IgG in flow cell 1 and 3 was used as the reference surface. For kinetic analysis, rate equations derived from the 1:1 Langmuir binding model were fitted simultaneously to association and dissociation phases of all eight injections (using global fit analysis) with the use of Biaevaluation 4.0.1 software. Purified antibodies or DVD-Ig were diluted in HEPES-buffered saline for capture across goat anti-mouse IgG specific reaction surfaces. Antibodies or DVD-Ig to be captured as a ligand (25 μg/ml) were injected over reaction matrices at a flow rate of 5 μl/min. The association and dissociation rate constants, kₒₙ (M⁻¹s⁻¹) and koff (s⁻¹) were determined under a continuous flow rate of 25 μl/min. Rate constants were derived by making kinetic binding measurements at different antigen concentrations ranging from 10−200 nM. The equilibrium dissociation constant (M) of the reaction between antibodies or DVD-Igs and the target antigen was then calculated from the kinetic rate constants by the following formula: KD=koff/kₒₙ. Binding was recorded as a function of time and kinetic rate constants are calculated.

Recombinant Human IL-1β = biological target: T2, Recombinant Human IL-1β (human, UniProt P01584 117-269); assay: Biacore SPR; C-terminal VD
T2 construct: bought reagent; also called IL-1B
Experimental: as §1

Row | Binder | Kd (Recombinant Human IL-17) [nM] | koff (Recombinant Human IL-17) [s⁻¹] | kon (Recombinant Human IL-17) [M⁻¹ s⁻¹] | Kd (Recombinant Human IL-1β) [nM] | koff (Recombinant Human IL-1β) [s⁻¹] | kon (Recombinant Human IL-1β) [M⁻¹ s⁻¹]
1 | DVD1620 (bispecific antibody, human IgG1, kappa, V1 wt hIgG1, V2 kappa; also called DVD1620H; DVD1620L) heavy: not shown light: DIQMTQSPSSLSASVGDRVTITCRASSGIISYIDWFQQKPGKAPKRLIYATFDLASGVPSRFSGSGSGTDYTLTISSLQPEDFATYYCRQVGSYPETFGQGTKLEIKRTVAAPDIQMTQSPSSLSASVGDRVTITCRASGNIHNYLTWYQQTPGKAPKLLIYNAKTLADGVPSRFSGSGSGTDYTFTISSLQPEDIATYYCQHFWSIPYTFGQGTKLQITRTVAAPSVFIFPPSDEQLKSGTASVVCLLNNFYPREAKVQWKVDNALQSGNSQESVTEQDSKDSTYSLSSTLTLSKADYEKHKVYACEVTHQGLSSPVTKSFNRGEC | 0.0019 | 7.1e-06 | 3.8e+06 | 0.29 | 9.4e-05 | 330000
2 | DVD1622 (bispecific antibody, human IgG1, kappa, V1 wt hIgG1, V2 kappa; also called DVD1622H; DVD1622L) heavy: not shown light: DIQMTQSPSSLSASVGDRVTITCRASSGIISYIDWFQQKPGKAPKRLIYATFDLASGVPSRFSGSGSGTDYTLTISSLQPEDFATYYCRQVGSYPETFGQGTKLEIKRTVAAPDIQMTQSPSSLSASVGDRVTITCRASGNIHNYLTWYQQTPGKAPKLLIYNAKTLADGVPSRFSGSGSGTDYTFTISSLQPEDIATYYCQHFWSIPYTFGQGTKLQITRTVAAPSVFIFPPSDEQLKSGTASVVCLLNNFYPREAKVQWKVDNALQSGNSQESVTEQDSKDSTYSLSSTLTLSKADYEKHKVYACEVTHQGLSSPVTKSFNRGEC | 0.00046 | 1.7e-06 | 3.7e+06 | 0.16 | 0.00023 | 1.5e+06
3 | DVD1624 (bispecific antibody, human IgG1, kappa, DVD-Ig, outer AB273, inner AB270, linker set 3; V1 wt hIgG1, V2 kappa; also called DVD1624H; DVD1624L) heavy: not shown light: DIQMTQSPSSLSASVGDRVTITCRASSGIISYIDWFQQKPGKAPKRLIYATFDLASGVPSRFSGSGSGTDYTLTISSLQPEDFATYYCRQVGSYPETFGQGTKLEIKRTVAAPDTQVTQSPSSLSASVGDRVTITCITSTDIDVDMNWYQQKPGKPPKLLISQGNTLRPGVPSRFSSSGSGTDFTFTISSLQPEDFATYYCLQSDNLPLTFGQGTKLEIKRTVAAPSVFIFPPSDEQLKSGTASVVCLLNNFYPREAKVQWKVDNALQSGNSQESVTEQDSKDSTYSLSSTLTLSKADYEKHKVYACEVTHQGLSSPVTKSFNRGEC | 0.011 | 4.1e-05 | 3.7e+06 | 0.84 | 0.00046 | 550000
4 | DVD1608 (bispecific antibody, human IgG1, kappa, DVD-Ig, outer AB274, inner AB272, linker set 2; V1 wt hIgG1, V2 kappa; also called DVD1608H; DVD1608L) heavy: not shown light: EIVLTQSPDFQSVTPKEKVTITCRASQDIGSELHWYQQKPDQPPKLLIKYASHSTSGVPSRFSGSGSGTDFTLTINGLEAEDAGTYYCHQTDSLPYTFGPGTKVDIKRTVAAPSVFIFPPETTVTQSPSSLSASVGDRVTITCITSTDIDVDMNWYQQKPGKPPKLLISQGNTLRPGVPSRFSSSGSGTDFTFTISSLQPEDFATYYCLQSDNLPLTFGQGTKLEIKRTVAAPSVFIFPPSDEQLKSGTASVVCLLNNFYPREAKVQWKVDNALQSGNSQESVTEQDSKDSTYSLSSTLTLSKADYEKHKVYACEVTHQGLSSPVTKSFNRGEC | 0.0026 | 1.2e-05 | 4.8e+06 | 0.37 | 0.00056 | 1.5e+06
5 | DVD1618 (bispecific antibody, human IgG1, kappa, DVD-Ig, outer AB275, inner AB272, linker set 2; V1 wt hIgG1, V2 kappa; also called DVD1618H; DVD1618L) heavy: not shown light: EIVLTQSPDFQSVTPKEKVTITCRASQNIGSELHWYQQKPDQSPKLLIKYASHSISGVPSRFSGSGSGTDFTLTINGLEAEDAATYYCHQSDTLPHTFGQGTKVDIKRTVAAPSVFIFPPETTVTQSPSSLSASVGDRVTITCITSTDIDVDMNWYQQKPGKPPKLLISQGNTLRPGVPSRFSSSGSGTDFTFTISSLQPEDFATYYCLQSDNLPLTFGQGTKLEIKRTVAAPSVFIFPPSDEQLKSGTASVVCLLNNFYPREAKVQWKVDNALQSGNSQESVTEQDSKDSTYSLSSTLTLSKADYEKHKVYACEVTHQGLSSPVTKSFNRGEC | 0.019 | 6.3e-05 | 3.2e+06 | 0.26 | 0.00062 | 2.4e+06
6 | DVD1614 (bispecific antibody, human IgG1, kappa, DVD-Ig, outer AB275, inner AB270, linker set 2; V1 wt hIgG1, V2 kappa; also called DVD1614H; DVD1614L) heavy: not shown light: EIVLTQSPDFQSVTPKEKVTITCRASQNIGSELHWYQQKPDQSPKLLIKYASHSISGVPSRFSGSGSGTDFTLTINGLEAEDAATYYCHQSDTLPHTFGQGTKVDIKRTVAAPSVFIFPPDTQVTQSPSSLSASVGDRVTITCITSTDIDVDMNWYQQKPGKPPKLLISQGNTLRPGVPSRFSSSGSGTDFTFTISSLQPEDFATYYCLQSDNLPLTFGQGTKLEIKRTVAAPSVFIFPPSDEQLKSGTASVVCLLNNFYPREAKVQWKVDNALQSGNSQESVTEQDSKDSTYSLSSTLTLSKADYEKHKVYACEVTHQGLSSPVTKSFNRGEC | 0.014 | 4.8e-05 | 3.5e+06 | 0.18 | 0.0003 | 1.7e+06
7 | DVD1610 (bispecific antibody, human IgG1, kappa, V1 wt hIgG1, V2 kappa; also called DVD1610H; DVD1610L) heavy: not shown light: EIVLTQSPDFQSVTPKEKVTITCRASQNIGSELHWYQQKPDQSPKLLIKYASHSISGVPSRFSGSGSGTDFTLTINGLEAEDAATYYCHQSDTLPHTFGQGTKVDIKRTVAAPSVFIFPPDIQMTQSPSSLSASVGDRVTITCRASGNIHNYLTWYQQTPGKAPKLLIYNAKTLADGVPSRFSGSGSGTDYTFTISSLQPEDIATYYCQHFWSIPYTFGQGTKLQITRTVAAPSVFIFPPSDEQLKSGTASVVCLLNNFYPREAKVQWKVDNALQSGNSQESVTEQDSKDSTYSLSSTLTLSKADYEKHKVYACEVTHQGLSSPVTKSFNRGEC | 0.017 | 5.7e-05 | 3.5e+06 | 0.25 | 7.3e-05 | 290000
8 | DVD1612 (bispecific antibody, human IgG1, kappa, V1 wt hIgG1, V2 kappa; also called DVD1612H; DVD1612L) heavy: not shown light: EIVLTQSPDFQSVTPKEKVTITCRASQNIGSELHWYQQKPDQSPKLLIKYASHSISGVPSRFSGSGSGTDFTLTINGLEAEDAATYYCHQSDTLPHTFGQGTKVDIKRTVAAPSVFIFPPDIQMTQSPSSLSASVGDRVTITCRASGNIHNYLTWYQQTPGKAPKLLIYNAKTLADGVPSRFSGSGSGTDYTFTISSLQPEDIATYYCQHFWSIPYTFGQGTKLQITRTVAAPSVFIFPPSDEQLKSGTASVVCLLNNFYPREAKVQWKVDNALQSGNSQESVTEQDSKDSTYSLSSTLTLSKADYEKHKVYACEVTHQGLSSPVTKSFNRGEC | 0.016 | 5.1e-05 | 3.2e+06 | 0.15 | 2.5e-05 | 160000
9 | DVD1606 (bispecific antibody, human IgG1, kappa, DVD-Ig, outer AB274, inner AB271, linker set 2; V1 wt hIgG1, V2 kappa; also called DVD1606H; DVD1606L) heavy: not shown light: EIVLTQSPDFQSVTPKEKVTITCRASQDIGSELHWYQQKPDQPPKLLIKYASHSTSGVPSRFSGSGSGTDFTLTINGLEAEDAGTYYCHQTDSLPYTFGPGTKVDIKRTVAAPSVFIFPPDTVVTQSPAFLSVTPGEKVTITCITSTDIDVDMNWYQQKPDQPPKLLISQGNTLRPGVPSRFSSSGSGTDFTFTISSLEAEDAATYYCLQSDNLPLTFGQGTKLEIKRTVAAPSVFIFPPSDEQLKSGTASVVCLLNNFYPREAKVQWKVDNALQSGNSQESVTEQDSKDSTYSLSSTLTLSKADYEKHKVYACEVTHQGLSSPVTKSFNRGEC | 0.00067 | 3e-06 | 4.4e+06 | 0.32 | 0.00044 | 1.4e+06
10 | DVD1616 (bispecific antibody, human IgG1, kappa, DVD-Ig, outer AB275, inner AB271, linker set 2; V1 wt hIgG1, V2 kappa; also called DVD1616H; DVD1616L) heavy: not shown light: EIVLTQSPDFQSVTPKEKVTITCRASQNIGSELHWYQQKPDQSPKLLIKYASHSISGVPSRFSGSGSGTDFTLTINGLEAEDAATYYCHQSDTLPHTFGQGTKVDIKRTVAAPSVFIFPPDTVVTQSPAFLSVTPGEKVTITCITSTDIDVDMNWYQQKPDQPPKLLISQGNTLRPGVPSRFSSSGSGTDFTFTISSLEAEDAATYYCLQSDNLPLTFGQGTKLEIKRTVAAPSVFIFPPSDEQLKSGTASVVCLLNNFYPREAKVQWKVDNALQSGNSQESVTEQDSKDSTYSLSSTLTLSKADYEKHKVYACEVTHQGLSSPVTKSFNRGEC | 0.015 | 4.9e-05 | 3.3e+06 | 0.22 | 0.00036 | 1.6e+06

Source: US20120034160A1 (AbbVie / Abbott, published 2012)
